The supplement of paper PMC10567573

B1: BTBD1 (parent)
chain: IVGFGLYGSIHGPTDYQVNIQIIE
B2: HSP90AB1 (parent)
chain: TLRQKAEADKNDKAVKDLVVLLFE

Variants of: B1
Assay: protein stability index of a GFP-peptide fusion (GPS, HEK-293T) (PSI 1-6); higher = more stable
Settings: c terminus: a fixed tail appended
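Note: lentivirally expressed fusions sorted by FACS into six bins by GFP to DsRed ratio, PSI derived from sequencing read proportions per bin multiplied by bin number.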

Protein stability index, by site and new letter:
G5: M 2.92 | W 2.79 | S 1.62 | H 2.33 | C 2.63 | R 2.57 | P 2.36
H11: C 2.58 | V 3.12 | K 1.55 | P 2.57
N19: Q 2.56 | T 3.11 | V 4.07 | P 3.38
I10: T 3.32 | K 1.76 | W 1.64 | E 2.58 | Q 3.45 | P 2.78 | C 3.14 | V 2.09
S9: L 3.19 | V 3.54 | N 3.18 | R 2.67 | F 2.95 | I 2.88
V2: Q 4.24 | I 2.6 | M 2.49 | Y 2.16 | K 2.02 | G 2.59
Q21: E 2.68 | W 1.5 | Y 3.06 | I 2.01 | D 3.52
I20: V 2.83 | E 1.46 | K 1.16 | H 2.21 | N 1.24 | C 2.49 | A 2.29 | P 2.21 | Q 2.58
G12: I 1.72 | K 4.19 | Y 1.89 | L 3.53 | W 2.56 | M 2.27 | D 3.52
F4: A 1.97 | P 1.87 | I 3.05 | S 2.07 | D 2.64
I1: Q 3.04 | N 2.16 | E 3.29 | F 3.14 | H 2.38 | P 1.82 | G 3.43
G3: P 2.64 | V 3.82 | K 3.18 | N 3.38 | W 4.95 | A 3.04
E24: T 3.78 | W 3.21 | I 2.08 | Q 2.62 | F 1.72
D15: E 3.19 | A 2.57 | Y 3.42 | P 2.37 | M 2.99
T14: D 2.94 | M 3.23 | S 3.24 | V 2.82
V18: H 1.58 | R 2.39 | K 2.42 | D 2.32 | T 4
Y16: H 1.6 | A 2.1 | K 3.23 | T 4.3 | C 3.51 | M 2.38 | D 2.5 | E 2.15 | Q 1.69
P13: C 2.51 | Y 2.98 | F 2.72 | T 2.81 | Q 3.17 | R 2.35 | A 2.3
I23: K 2.13 | L 2.96 | R 2.12 | S 2.29 | N 3.56 | M 3.68
Y7: P 3.54 | V 2.16 | F 1.86 | C 2.57 | S 2.47
Q17: A 3.68 | V 2.48 | P 1.98 | R 3.14 | K 2.3 | C 2.49 | N 2.98
L6: R 2.67 | D 2.33 | M 1.94 | W 1.76 | V 3.11 | Y 3.48 | P 3.27 | G 4.42 | I 2.75 | A 3.31 | N 2.56 | E 2.02
I22: D 1.3 | L 2.65 | W 3.36 | C 4.32 | A 2.07
G8: N 2.5 | F 2.78 | K 2.89 | H 2.61 | P 4.75 | R 1.45 | Q 3.42

Variants of: B2
Assay: as above
Settings: c terminus: a fixed tail appended

Protein stability index of substitutions, site by site:
E7: G 2.24 | R 2.29 | I 2.63 | D 2.79
L18: E 4.04 | P 4.21 | S 3.9 | D 4.2 | K 3.44 | Q 4.03 | N 4.19 | I 2.95 | M 3.29 | W 3.19
A14: T 2.57 | Q 2.92 | D 2.58 | H 2.79 | C 2.35 | V 2.44 | I 3 | P 2.99 | G 3.17 | S 2.26 | R 2.62 | M 2.73
D12: Q 2.7 | G 2.48 | K 1.99 | E 2.95 | H 2.56 | S 3.17 | L 2.73 | R 3.48
K5: M 3.48 | C 2.85 | L 3.1 | T 3.15
T1: W 2.51 | E 3.92 | F 2.42 | R 2.47 | N 2.57 | Y 2.63 | L 2.3 | C 2.26
L21: Q 3.52 | D 4.26 | W 1.73 | E 3.98 | N 3.89 | F 2.35 | I 2.35 | V 3.06 | Y 2.41 | R 3.31 | S 3.44
L22: F 2.84 | H 3.79 | Y 2.78 | M 3.15 | G 4.5 | C 3.82
L2: M 2.95 | E 3.01 | R 2.56 | P 3.23 | K 2.26 | S 3.05
V19: Q 4.23 | I 3.5 | M 2.44 | Y 3.1 | P 4.38 | G 4.16 | L 2.68
A6: Q 2.68 | D 3.41 | N 2.61 | E 3.33 | F 2.74 | I 3.35 | T 2.85
V15: R 2.49 | A 3.1 | S 3.09 | W 2.64 | L 2.81 | Y 3.43 | D 3.2
V20: S 4.6 | N 4.46 | R 2.88 | F 2.96 | H 3.43 | L 3.13
N11: Q 2.62 | S 2.95 | E 3.21 | F 3.09 | M 3.11 | T 3.37
A8: V 3.27 | W 3.03 | H 2.85 | N 3.35
K16: V 3.65 | P 2.65 | W 3.02 | T 2.99 | H 3.29 | S 2.92 | C 2.19 | N 3.44
Q4: H 2.37 | I 2.41 | M 2.48 | S 3.21 | R 2.26 | G 3.06 | D 3.32 | E 3.39 | N 2.71 | A 2.63
K10: M 2.65 | R 3.29 | H 2.69 | S 3.56 | A 3.44 | V 2.57
K13: T 2.96 | Y 2.2 | P 3.22 | F 1.93 | D 2.63 | H 2.46 | Q 3.21
E24: L 2.54 | D 2.83 | S 2.19 | R 2.04 | I 2.54 | Y 2.21 | W 1.97 | A 1.89 | N 2.44 | H 2.79
F23: I 2.88 | P 5.02 | Y 3.47 | C 3.71 | G 4.87 | N 4.73 | H 4.5 | E 5.22 | M 3.37
R3: Y 2.35 | H 2.84 | E 3.17 | K 3.36 | N 3.1 | G 2.72 | A 3.46 | W 2.6
D17: W 2.62 | H 2.52 | P 2.87 | K 2.14 | R 1.98 | Q 2.04 | T 1.95 | V 1.6 | F 1.51 | Y 1.91
D9: F 2.52 | N 2.51 | A 2.98 | C 2.73 | V 2.38 | Y 2.87 | S 2.92 | H 2.95 | Q 3.23
